According to the supplement of paper PMC10567573:

B1: ALDH8A1 (parent)
chain: FTGSQPTAERITQLSAPHCKKLSL
B2: EPB41L3 (parent)
chain: GSKFRYSGRTQAQTRRASALIDRP

Variants of: B1
Test: protein stability index of a GFP-peptide fusion (GPS, HEK-293T) (PSI 1-6); higher = more stable
Settings: c terminus: a fixed tail appended
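Note: lentivirally expressed fusions sorted by FACS into six bins by GFP to DsRed ratio, PSI derived from sequencing read proportions per bin multiplied by bin number.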

Variant	protein stability index
FTGSQPTAERITQLSAPHCKMLSL	2.45
FTGSQPTAERITQLSAPHCKNLSL	2.05
FTGSQPTAERITQLSAPHCKPLSL	2.32
FTGSQPTAERITQLSAPHCKQLSL	2.23
FTGSQPTAERITQLSAPHCKRLSL	2.41
FTGSQPTAERITQLSAPHCKSLSL	2.22
FTGSQPTAERITQLSAPHCKTLSL	2.06
FTGSQPTAERITQLSAPHCKVLSL	2.22
FTGSQPTAERITQLSAPHCKWLSL	1.71
FTGSQPTAERITQLSAPHCKYLSL	2.1
FTGSQPTAERITQLSAPHCKKASL	2.85
FTGSQPTAERITQLSAPHCKKCSL	2.27
FTGSQPTAERITQLSAPHCKKDSL	2.67
FTGSQPTAERITQLSAPHCKKESL	3.46
FTGSQPTAERITQLSAPHCKKFSL	1.92
FTGSQPTAERITQLSAPHCKKGSL	2.88
FTGSQPTAERITQLSAPHCKKHSL	2.29
FTGSQPTAERITQLSAPHCKKISL	2.76
FTGSQPTAERITQLSAPHCKKKSL	2.68
FTGSQPTAERITQLSAPHCKKMSL	2.14
FTGSQPTAERITQLSAPHCKKNSL	2.54
FTGSQPTAERITQLSAPHCKKPSL	2.26
FTGSQPTAERITQLSAPHCKKQSL	2.68

Variant	protein stability index
FTGSQPTAERITQLSAPHCKKRSL	2.23
FTGSQPTAERITQLSAPHCKKSSL	2.61
FTGSQPTAERITQLSAPHCKKTSL	2.61
FTGSQPTAERITQLSAPHCKKVSL	1.91
FTGSQPTAERITQLSAPHCKKWSL	2.19
FTGSQPTAERITQLSAPHCKKYSL	2.68
FTGSQPTAERITQLSAPHCKKLAL	2.4
FTGSQPTAERITQLSAPHCKKLCL	1.78
FTGSQPTAERITQLSAPHCKKLDL	2.69
FTGSQPTAERITQLSAPHCKKLEL	2.56
FTGSQPTAERITQLSAPHCKKLFL	2.27
FTGSQPTAERITQLSAPHCKKLGL	1.97
FTGSQPTAERITQLSAPHCKKLHL	2.02
FTGSQPTAERITQLSAPHCKKLIL	2.15
FTGSQPTAERITQLSAPHCKKLKL	2.03
FTGSQPTAERITQLSAPHCKKLLL	1.81
FTGSQPTAERITQLSAPHCKKLML	2.27
FTGSQPTAERITQLSAPHCKKLNL	2.39
FTGSQPTAERITQLSAPHCKKLPL	2.33
FTGSQPTAERITQLSAPHCKKLQL	2.35
FTGSQPTAERITQLSAPHCKKLRL	1.79
FTGSQPTAERITQLSAPHCKKLTL	1.88
FTGSQPTAERITQLSAPHCKKLVL	1.93

Variant	protein stability index
FTGSQPTAERITQLSAPHCKKLWL	1.85
FTGSQPTAERITQLSAPHCKKLYL	2.66
FTGSQPTAERITQLSAPHCKKLSA	2.6
FTGSQPTAERITQLSAPHCKKLSC	2.52
FTGSQPTAERITQLSAPHCKKLSD	3.23
FTGSQPTAERITQLSAPHCKKLSE	2.96
FTGSQPTAERITQLSAPHCKKLSF	1.97
FTGSQPTAERITQLSAPHCKKLSG	2.67
FTGSQPTAERITQLSAPHCKKLSH	2.52
FTGSQPTAERITQLSAPHCKKLSI	2.04
FTGSQPTAERITQLSAPHCKKLSK	2.5
FTGSQPTAERITQLSAPHCKKLSM	2.46
FTGSQPTAERITQLSAPHCKKLSN	2.97
FTGSQPTAERITQLSAPHCKKLSP	2.9
FTGSQPTAERITQLSAPHCKKLSQ	2.9
FTGSQPTAERITQLSAPHCKKLSR	2.52
FTGSQPTAERITQLSAPHCKKLSS	2.95
FTGSQPTAERITQLSAPHCKKLST	2.56
FTGSQPTAERITQLSAPHCKKLSV	2.38
FTGSQPTAERITQLSAPHCKKLSW	1.93
FTGSQPTAERITQLSAPHCKKLSY	2.2

Variants of: B2
Test: as above
Settings: c terminus: a fixed tail appended

Variant	protein stability index
ASKFRYSGRTQAQTRRASALIDRP	3.02
CSKFRYSGRTQAQTRRASALIDRP	2.88
DSKFRYSGRTQAQTRRASALIDRP	3.06
ESKFRYSGRTQAQTRRASALIDRP	3.62
FSKFRYSGRTQAQTRRASALIDRP	2.12
HSKFRYSGRTQAQTRRASALIDRP	3.03
ISKFRYSGRTQAQTRRASALIDRP	2.53
KSKFRYSGRTQAQTRRASALIDRP	3.33
LSKFRYSGRTQAQTRRASALIDRP	2.53
MSKFRYSGRTQAQTRRASALIDRP	2.58
NSKFRYSGRTQAQTRRASALIDRP	3.34
PSKFRYSGRTQAQTRRASALIDRP	2.99
QSKFRYSGRTQAQTRRASALIDRP	2.74
RSKFRYSGRTQAQTRRASALIDRP	3.17
SSKFRYSGRTQAQTRRASALIDRP	2.33
TSKFRYSGRTQAQTRRASALIDRP	3.08
VSKFRYSGRTQAQTRRASALIDRP	2.43
WSKFRYSGRTQAQTRRASALIDRP	2.33
YSKFRYSGRTQAQTRRASALIDRP	1.85
GAKFRYSGRTQAQTRRASALIDRP	2.66
GCKFRYSGRTQAQTRRASALIDRP	2.44
GDKFRYSGRTQAQTRRASALIDRP	4.02
GEKFRYSGRTQAQTRRASALIDRP	3.98
GFKFRYSGRTQAQTRRASALIDRP	2.55
GGKFRYSGRTQAQTRRASALIDRP	3.31
GHKFRYSGRTQAQTRRASALIDRP	2.98
GIKFRYSGRTQAQTRRASALIDRP	2.74
